Test results: US12083109B2, “Neurokinin antagonists and uses thereof” (California Institute of Technology, priority 2017, dated 2024)
“Also recorded” adds a separate entry of the source.

What was measured:
Nk3R = target: T1, Nk3R (Mus musculus, UniProt P47937); assay: SIS mice: overall behavioral effects and return to group housing, osanetant; format: in vivo; set-up: from tissue; host or cells: Living mice (wild-type C57Bl6/N males, Charles River); details: for fighting/aggression on return of SIS mice to housing with cagemates: osanetant during or during or following SIS
T1 sequence (P47937 1-452): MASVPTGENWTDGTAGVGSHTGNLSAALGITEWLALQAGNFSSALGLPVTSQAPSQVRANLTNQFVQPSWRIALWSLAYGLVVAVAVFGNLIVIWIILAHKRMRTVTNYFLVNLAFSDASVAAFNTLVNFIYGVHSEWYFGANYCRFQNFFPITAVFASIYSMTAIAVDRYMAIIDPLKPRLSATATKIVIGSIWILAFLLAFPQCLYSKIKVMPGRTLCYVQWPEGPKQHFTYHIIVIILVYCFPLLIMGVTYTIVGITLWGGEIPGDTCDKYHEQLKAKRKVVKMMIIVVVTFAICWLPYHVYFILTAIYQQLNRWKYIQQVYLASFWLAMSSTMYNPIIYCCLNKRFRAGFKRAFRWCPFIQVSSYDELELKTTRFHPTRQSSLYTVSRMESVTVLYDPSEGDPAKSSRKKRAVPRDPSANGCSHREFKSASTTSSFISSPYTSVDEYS
Source text: WT males (Charles River) were housed in isolation (1 animal per cage), or in groups of 3. Tac2-Cre males (bred in-house) were housed in isolation, or in groups of 2-5. Animals were isolated post-weaning, at 8-16 weeks of age. All cage conditions remained otherwise identical for group-housed mice compared to isolated animals, and mice were housed on the same rack in the same vivarium. Except as otherwise indicated, social isolation was maintained for at least 2 weeks (this period was extended in the case of surgical experiments, i.e. when adequate time for recovery and viral expression levels were required). All mice were between 12-20 weeks of age at the time of behavioral testing. We asked whether Tac2 signaling is required during the period of social isolation to observe the changes in behavior. Mice were administered osanetant daily in their home cage during the two-week social isolation period, but were then tested off-drug. To control for carry-over of the drug from the final homecage administration into the testing period (24 hrs later), an additional group of mice was subjected to two weeks of SIS without drug, and given a single home-cage administration of osanetant 24 hours prior to testing (FIG. 3G).

Tac2 = assay: Tone fear test, Tac2 shRNA knockdown; format: in vivo, mouse; details: SIS mice
Source text: Small hairpin RNA (shRNA) for the mouse Tac2 gene (NM_009312.2) were designed using the online designing tool siDirect 2.0 (http://sidirect2.mai.jp/) (Naito et al., 2009; incorporated by reference in its entirety).
8-16 week old mice were anesthetized with isoflurane and mounted in a stereotaxic apparatus (Kopf Instruments). Anesthesia was maintained throughout surgery at 1-1.5% isoflurane. The skull was exposed and small burr holes produced dorsal to each injection site using a stereotaxic mounted drill. Virus was backfilled into pulled fine glass capillaries (˜50 μm diameter at tip) and pressure injections of 300 nl were made bilaterally into either the dBNSTa (AP +0.25, ML ±0.85, DV −4.1), DMH (AP −1.3, ML±0.35, DV −5.6), or CeA (AP −1.4, ML ±2.6, DV −4.73) at a rate of 30nl per minute using a nanoliter injector (Nanoliter 2000, World Precision Instruments) controlled by an ultra microsyringe pump (Micro4, World Precision Instruments). Capillaries remained in place for 5 minutes following injections to allow for full diffusion of virus and to reduce backflow up the injection tract. Skin above the skull was then drawn together and sealed with GLUture (Zoetis). For bilateral cannula implantations, single or double guide cannulas (custom, Plastics One) aimed 0.5 mm above each region were implanted and held in place with dental cement (Parkell). Compatible dummy cannulas with a 0.5 mm protrusion at the tip were inserted to prevent cannula clogging. Directly following surgery, mice were given a subcutaneous injection of ketoprofen (2 mg/kg) and supplied with drinking water containing 400 mg/L sulphamethoxazole and 200 mg/L ibuprofen and monitored for 7 days. Dummies were replaced every 2-3 days to keep cannula tracts clean. All injections were subsequently verified histologically.
The protocol for tone trace fear conditioning was performed as previously described (Cushman et al., 2014; incorporated by reference in its entirety) using fear conditioning boxes previously described in detail (Haubensak et al., 2010; Kunwar et al., 2015; incorporated by reference in their entirety). Briefly, mice were transported in squads of four on a white cart to a novel behavioral testing room containing 4 sound-attenuating fear-conditioning chambers (Med Associates). This “training context” was comprised of flat grid flooring (wired to a shock generator and scrambler for footshock delivery, Med Associates), houselights, and the presence of an internal fan for background noise. Chambers were sprayed with 70% Simple Green solution on the underlying chamber pan to generate a unique contextual scent and chambers were cleaned with 70% EtOH between squads. […]

| Molecule | behavioral effects of 2 weeks of social isolation stress (overall) (Nk3R; mice) | fighting/aggression on return of SIS mice to housing with cagemates (Nk3R) | fighting/aggression on return of SIS mice to housing with cagemates (Nk3R; listed as Osanetant) | acute (during) freezing to conditioned tone (Tac2; AAV shRNA in dBNSTa) | freezing to conditioned tone (Tac2; AAV shRNA in CeA) | persistent (post) freezing to conditioned tone (Tac2; AAV shRNA in dBNSTa) |
| --- | --- | --- | --- | --- | --- | --- |
| CC(=O)N(C)C1(c2ccccc2)CCN(CCC[C@]2(c3ccc(Cl)c(Cl)c3)CCCN(C(=O)c3ccccc3)C2)CC1 [osanetant, N-(1-{3-[(3R)-1-benzoyl-3-(3,4-dichlorophenyl)piperidin-3-yl]propyl}-4-phenylpiperidin-4-yl)-N-methylacetamide] | protects and prevents | without any subsequent fighting observed | prevents aggression | – | – | – |
| shRNA-2: small hairpin RNA for mouse Tac2 gene (SEQ ID NO: 11, 12), expressed from AAV5-H1-shRNA-CMV-zsGreen (nucleic acid) chain 1: CCGCCTCAACCCCATAGCAATTAGCTTCCTGTCACTAATTGCTATGGGGTTGAGGCTTTTTT chain 2: AAAAAAGCCTCAACCCCATAGCAATTAGTGACAGGAAGCTAATTGCTATGGGGTTGAGGCGG | – | – | – | additionally reduced; also recorded: significantly reduced | – | – |
| shRNA-1: small hairpin RNA for mouse Tac2 gene (SEQ ID NO: 9, 10), expressed from AAV5-H1-shRNA-CMV-zsGreen (nucleic acid) chain 1: CCGACGTGGTTGAAGAGAACACCGCTTCCTGTCACGGTGTTCTCTTCAACCACGTCTTTTTT chain 2: AAAAAAGACGTGGTTGAAGAGAACACCGTGACAGGAAGCGGTGTTCTCTTCAACCACGTCGG | – | – | – | had no effect | blocked | blocked; also recorded: strongly reduced |
